Source: PMC9825155, “Cdk1-mediated threonine phosphorylation of Sam68 modulates its RNA binding, alternative splicing activity and cellular functions”

Tests used:
[1] = target: T1, Sam68 N-terminal region (UniProt Q07666 1-96); assay: NMR titration; one of two estimates (backbone or Arg side chains; panel assignment not clear, error suggests eight backbone resonances); text range 1-10 uM; NMR: HSQC at 4 C (NMR buffer not given in material; purification in 50 mM sodium phosphate, 150 mM NaCl, pH 7.6 N-term / pH 7.0 C-term). Pull-down: 20 mM HEPES; details: protein: recombinant; tags: His-tag removed by TEV
T1 sequence (Q07666 1-96): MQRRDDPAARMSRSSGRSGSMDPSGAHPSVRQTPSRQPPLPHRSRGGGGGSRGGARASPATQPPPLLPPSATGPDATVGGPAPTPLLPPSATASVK

[2] = target: T2, Sam68 C-terminal region (UniProt Q07666 267-368); assay: NMR titration; one of two estimates (backbone or Arg side chains; panel assignment not clear, error suggests eight backbone resonances); text range 30-70 uM; NMR: HSQC at 4 C (NMR buffer not given in material; purification in 50 mM sodium phosphate, 150 mM NaCl, pH 7.6 N-term / pH 7.0 C-term). Pull-down: 20 mM HEPES; details: protein: recombinant; tags: GST removed by PreScission
T2 sequence (Q07666 267-368): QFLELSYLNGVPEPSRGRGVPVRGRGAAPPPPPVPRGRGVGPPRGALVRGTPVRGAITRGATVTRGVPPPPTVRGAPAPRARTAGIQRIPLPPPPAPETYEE

[3] = target: T2, Sam68 C-terminal region; assay: NMR titration; second estimate (probably Arg side chains); NMR: HSQC at 4 C (NMR buffer not given in material; purification in 50 mM sodium phosphate, 150 mM NaCl, pH 7.6 N-term / pH 7.0 C-term). Pull-down: 20 mM HEPES; details: protein: recombinant; tags: GST removed by PreScission
[4] = target: T1, Sam68 N-terminal region; assay: as above; details: protein: recombinant; tags: His-tag removed by TEV

B1: G8.5 RNA (ssRNA)
RNA: CUGGGUGACACACUAGCUAUAGCAUUAAAAGACCGAGCAAGU
B1 gave a Kd [1] of 3.5 ± 1.2 µM, a Kd [2] of 32 ± 5 µM and a Kd [3] of 68 µM. It also gave a Kd [4] of 12 µM.
